In doi:10.1101/2024.10.28.620575:
Several values for one entry are separate records, joined by “and”; a condition that tells them apart may be missing. Identical values can stand only once. Blank lines part the entries; values can stand above or below the substance they belong to.

Columns and labels:
[1] = biological target: ΔTPDM3^Col-0 DQN-AAA (D332A Q345A N349A triple mutant, recombinant) (Arabidopsis thaliana); test: SEC
[2] = biological target: DM2h^Bla-1-Myc (Arabidopsis thaliana); test: native gel or EMSA
[3] = biological target: ΔTPDM3^Col-0 DQ-RR (D332R Q345R double mutant, recombinant) (Arabidopsis thaliana); test: SEC
[4] = biological target: ΔTPDM3^Col-0 (recombinant, 52-515) (Arabidopsis thaliana); test: cryo-EM structure
[5] = biological target: ΔTPDM3^Col-0 S214A (recombinant) (Arabidopsis thaliana); test: SEC
[6] = biological target: ΔTPDM3^Col-0 Q345R (recombinant) (Arabidopsis thaliana); test: SEC
[7] = biological target: ΔTPDM3^Col-0 D332R (recombinant) (Arabidopsis thaliana); test: SEC
[8] = biological target: ΔTPDM3^Hh-0 (recombinant, 52-515) (Arabidopsis thaliana); test: cryo-EM structure
[9] = biological target: ΔTPDM3^Hh-0 S214A (recombinant) (Arabidopsis thaliana); test: SEC

stoichiometry N [1]: 6
Substance: ΔTPDM3^Col-0 DQN-AAA (D332A Q345A N349A triple mutant, recombinant) (enzyme)

stoichiometry N [2]: 2 and 4
Substance: DM2h^Bla-1-Myc (receptor)

stoichiometry N [3]: 6
Substance: ΔTPDM3^Col-0 DQ-RR (D332R Q345R double mutant, recombinant) (enzyme)

stoichiometry N [4]: 6
Substance: ΔTPDM3^Col-0 (recombinant, 52-515) (enzyme)

stoichiometry N [5]: 6
Substance: ΔTPDM3^Col-0 S214A (recombinant) (enzyme)

stoichiometry N [6]: 6
Substance: ΔTPDM3^Col-0 Q345R (recombinant) (enzyme)

stoichiometry N [7]: 6
Substance: ΔTPDM3^Col-0 D332R (recombinant) (enzyme)

stoichiometry N [8]: 6
Substance: ΔTPDM3^Hh-0 (recombinant, 52-515) (enzyme)

stoichiometry N [9]: 6
Substance: ΔTPDM3^Hh-0 S214A (recombinant) (enzyme)
